# How the values were obtained:
# [1] = biological target: NaV1.5 α subunit, DIII LFS voltage clamp fluorometry construct (M1296C), labelled with MTS-TAMRA (human) (UniProt Q14524)
# [2] = biological target: NaV1.5 α subunit, DIV voltage clamp fluorometry construct (S1618C), labelled with MTS-TAMRA (human) (UniProt Q14524)
# [3] = biological target: NaV1.5 α subunit, DIII LFS voltage clamp fluorometry construct (M1296C), labelled with MTS-TAMRA (human) (UniProt Q14524); remark: listed apart in the source
# [4] = biological target: A1330W mutant NaV1.5 channel in the DIII-M1296C VCF construct, labelled with MTS-TAMRA (human) (UniProt Q14524)
molecule,measurement,setting,value
β3-NTM β1-C chimera,"depolarizing shift of the DIII F-V curve (voltage clamp fluorometry in oocytes), α with chimera against α alone",[1],22.9 mV
WT NaV β1 subunit (from UniProt Q07699-1 19-218) (natural protein),"depolarizing shift of the DIV F-V curve (voltage clamp fluorometry in oocytes), α with β1 against α alone",[2],31.3 mV
WT NaV β3 subunit (natural protein) FPVCVEVPSETEAVQGNPMKLRCISCMKREEVEATTVVEWFYRPEGGKDFLIYEYRNGHQEVESPFQGRLQWNGSKDLQDVSITVLNVTLNDSGLYTCNVSREFEFEAHRPFVKTTRLIPLRVTEEAGEDFTSVVSEIMMYILLVFLTLWLLIEMIYCYRKVSKAEEAAQENASDYLAIPSENKENSAVPVEE,"depolarizing shift of the DIII F-V curve (voltage clamp fluorometry in oocytes), α with β3 against α alone",[3],20.7 mV
same,"depolarizing shift of the DIII F-V curve (voltage clamp fluorometry in oocytes), A1330W with β3 against A1330W alone",[4],22.6 mV

# Source: article PMC5560778
